# Measured values as given in FireProtDB (doi:10.1021/bi00017a003).
# B1: Subtilisin-chymotrypsin inhibitor-2A wild type, P01053 (protein)
# chain: MSSVEKKPEGVNTGAGDRHNLKTEWPELVGKSVEEAKKVILQDKPEAQIIVLPVGTIVTMEYRIDRVRLFVDKLDNIAQVPRVG
# Conditions: Hordeum vulgare; pH 6.3; 25 °C; GdnHCl; Fluorescence; MES 50 mM; whole UniProt chain shown
protein,measurement,value
B1,denaturant m value,1.9 kcal/mol/M
same,denaturant midpoint (higher = more stable),4 M
